Data published in patent US20250346890A1, “LEUKEMIA TREATMENT” (Deutsches Krebsforschungszentrum, priority 2019, published 2025).

Assays:
[1] = test system: ID1; assay: qRT-PCR analysis of ID1 in HEPG2 cells; assay type: cell-based, human; settings: BMP4
Experimental: Cultured cells were lysed in Macherey-Nagel RAI buffer containing 1% β-mercaptoethanol and total RNAs were isolated using NucleoSpin RNA isolation kit (Macherey-Nagel 740955). Reverse transcription and PCR amplification were performed. Primers used in this study are listed in Supplementary Table 1. Graphs show relative gene expressions to GAPDH. […] Statistical analyses were performed using PRISM7 software with unpaired t-test or one-way ANOVA test.

[2] = biological target: T1, extracellular domain of ALK3 (Homo sapiens, UniProt P36894); assay: In vitro binding assay RSPO / ALK3^ECD (Scatchard plot)
T1 construct: made in house; host or cells: HEK293T (conditioned medium)
Experimental: (§1) High binding 96-well plates (Greiner M5811) were coated with 2 μg ml^−1 of recombinant human RSPO1 (Peprotech 120-38), RSPO2 (Peprotech 120-43), RSPO3 (Peprotech 120-44) or FGF8b (Peprotech 100-25) recombinant protein reconstituted in bicarbonate coating buffer (50 mM NaHCO3, pH 9.6) overnight at 4° C. Coated wells were washed three times with TBST (TBS, 0.1% Tween-20) and blocked with 5% BSA in TBST for 1 hour at room temperature. 1.5 U ml^−1 of ALK3^ECD-AP or control conditioned medium was incubated overnight at 4° C. Wells were washed six times with TBST and bound AP activity was measured by the chemiluminescent SEAP Reporter Gene Assay kit (Abcam ab 133077). For ZNRF3-ALK3 binding assay, plates were coated with recombinant human ZNRF3 Fc Chimera protein (R&D systems 7994-RF). ALK3^ECD-AP was preincubated with RSPO2-Flag, RSPO2^ΔTSP-Flag conditioned medium or recombinant RSPO protein prior to treatment. Control conditioned medium and vesicles were used as control. […] Statistical analyses show unpaired t-tests.

[3] = biological target: T2, ALK3RD (Homo sapiens, UniProt P36894, Q233D); assay: BRE reporter assay in HEPG2 cells with constitutively active ALK3; assay type: cell-based; settings: RSPO treatment
T2 construct: expressed in transfected cells; host or cells: HEPG2
Text: Alkaline phosphatase (AP) fusions with RSPOs (human RSPO1^ΔC-AP-pCDNA3, RSPO2^ΔC-AP-pCDNA3, RSPO2^ΔC-AP-pCS2+, RSPO3^ΔC-AP-pCDNA3, murine RSPO4^ΔC-pCDNA3) were generated by replacing the C-terminal domain (ΔC) by AP and used to produce conditioned media. Human RSPO2 wild-type (RSPO2), Furin1 and Furin2 deletion mutants (RSPO2^ΔFU), and TSP1 domain deletion mutant (RSPO2^ΔTSP) are ORFs lacking the C-terminal domain, C-terminally tagged with a Flag-tag and subcloned into pCS2+. R1-TSP^R2, R1-TSP^R2-AP and R1-TSP^R2-Flag plasmids were generated by fusion PCR and cloned in pCS2+. Conditioned media from all RSPO constructs were adjusted to equal concentration by western blot and AP activity measurement, and further validated by WNT reporter assay using HEK293T cells. The extracellular domain of ALK3 (ALK3^ECD) was subcloned in AP-pCS2+ for generating conditioned medium and used in in vitro binding assays. Constitutively active forms of ALK2,3,6 (ALK^QD) were generated by Gln-Asp mutations as described in Fujii et al. (1999), Mol Biol Cell 10, 3801-3813, doi: 10.1091/mbc.10.11.3801. HA-tagged ALK3 was a gift from Dr. D. Koinuma (Goto et al. (2007), J Biol Chem 282, 20603-20611, doi: 10.1074/jbc.M702100200). For Xenopus mRNA microinjection, Xenopus laevis BMP4-pCS2+, myc-tagged RSPO2^ΔC-myc-pCS2+, RSPO2^ΔFU-myc-pCS2+ and RSPO2^ΔTSP-myc-pCS2+ plasmids, DNALK3-pCS2+, membrane-RFP, EYFP-tagged human ALK3-pCS2+ were used for in vitro transcription. Human ZNRF3 and ZNRF3^ΔRING constructs were gifts from Dr. F. Cong (Novartis; Hao et al. (2012), Nature 485, 195-200, doi: 10.1038/nature11019), and ORFs were subcloned in flag-pCS2+ for in vitro transcription.
BRE luciferase assays were executed using 300,000 ml^−1 of HEPG2 cells in 24-well plates. PGL3-BRE-Luciferase (500 ng ml^−1) and pRL-TK-Renilla plasmids (50 ng ml^−1) were transfected using Lipofectamine 3000. […] Luciferase activity was measured with the Dual luciferase reporter assay system (Promega E1960). Firefly luminescence (BRE) was normalized to Renilla. […]

[4] = biological target: T3, ALK3 (Homo sapiens, UniProt P36894); assay: Cell surface binding assay in HEK293T cells transfected with ALK3
T3 construct: expressed in transfected cells; host or cells: HEK293T
Experimental: Cell surface binding assays were carried essentially out as previously described (Dosch et al. (1997), Development 124, 2325-2334). In brief, human ALK3-HA and Xenopus tropicalis LGR4 DNA were transfected in HEK293T cells, and incubated with 1.5 U ml^−1 conditioned media for 3 hours on ice. After several washes and crosslinking, cells were treated with 2 mM Levamisole for 20 min to inactivate endogenous AP activities and developed with BM-Purple (Sigma 11442074001). Cells were mounted with Fluoromount G. Images were obtained using LEICA DMIL microscope/Canon DS126311 camera.

[5] = biological target: T4, ZNRF3 and ALK3^ECD (Homo sapiens, UniProt P36894+Q9ULT6); assay: In vitro binding assay for ZNRF3 and ALK3^ECD; settings: plates coated with ZNRF3 Fc, ALK3^ECD-AP preincubated with the protein
T4 construct: purchased R&D systems 7994-RF
Experimental: as §1

[6] = test system: BMP4 signaling; assay: BRE reporter assay in HEPG2 cells stimulated by BMP4; assay type: cell-based, human
Experimental: BRE luciferase assays were executed using 300,000 ml^−1 of HEPG2 cells in 24-well plates. PGL3-BRE-Luciferase (500 ng ml^−1) and pRL-TK-Renilla plasmids (50 ng ml^−1) were transfected using Lipofectamine 3000. After 24 hours, cells were serum starved 2 hours and stimulated 14-16 hours with 80 ng ml^−1 recombinant human BMP4 protein (R&D systems 314-BP) along with AP tagged RSPO1-4 or flag tagged RSPO1-3 conditioned medium. Luciferase activity was measured with the Dual luciferase reporter assay system (Promega E1960). Firefly luminescence (BRE) was normalized to Renilla. TOPFlash luciferase assays were carried out as previously described (Berger et al. (2017), EMBO Rep 18, 712-725, doi: 10.15252/embr.201643585). […] Statistical analyses were made with the PRISM7 software using unpaired t-test or one-way ANOVA test. Not significant (ns) P>0.05, *P<0.05, **P<0.01, ***P<0.001, and ****P<0.0001.

T3 sequence (P36894 24-532): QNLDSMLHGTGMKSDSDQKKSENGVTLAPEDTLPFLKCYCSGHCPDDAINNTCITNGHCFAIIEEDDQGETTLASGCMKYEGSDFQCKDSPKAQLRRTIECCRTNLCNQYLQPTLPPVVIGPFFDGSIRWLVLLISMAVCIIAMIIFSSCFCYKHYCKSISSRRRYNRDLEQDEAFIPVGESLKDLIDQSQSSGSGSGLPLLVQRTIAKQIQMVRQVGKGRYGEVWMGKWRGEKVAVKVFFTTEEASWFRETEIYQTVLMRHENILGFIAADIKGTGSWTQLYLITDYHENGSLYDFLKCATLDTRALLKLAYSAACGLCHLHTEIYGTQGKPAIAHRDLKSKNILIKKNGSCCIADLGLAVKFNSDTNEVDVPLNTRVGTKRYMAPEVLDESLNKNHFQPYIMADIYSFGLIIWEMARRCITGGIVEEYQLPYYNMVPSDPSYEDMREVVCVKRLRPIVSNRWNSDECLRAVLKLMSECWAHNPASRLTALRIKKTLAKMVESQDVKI
T2 sequence (P36894 24-532 Q233D): as the sequence (P36894 24-532) above, with Q210D counted along it
T1 sequence (P36894 24-152 limits assumed): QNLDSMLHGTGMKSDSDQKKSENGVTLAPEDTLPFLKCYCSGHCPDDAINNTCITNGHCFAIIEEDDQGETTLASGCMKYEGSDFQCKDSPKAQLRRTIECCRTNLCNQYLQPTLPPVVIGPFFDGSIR
T4 sequence (Q9ULT6 56-219 limits assumed): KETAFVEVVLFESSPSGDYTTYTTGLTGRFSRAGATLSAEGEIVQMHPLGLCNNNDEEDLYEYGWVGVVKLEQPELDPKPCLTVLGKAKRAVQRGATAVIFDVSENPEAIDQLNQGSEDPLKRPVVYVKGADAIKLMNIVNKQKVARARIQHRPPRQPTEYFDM
T4 sequence (P36894 24-152 limits assumed): as the sequence (P36894 24-152 limits assumed) above

B1: RSPO2: human R-spondin 2 protein (SEQ ID NO:1); conditioned medium or recombinant (Peprotech 120-43) (protein, listed as Homo sapiens)
chain: MQFRLFSFALIILNCMDYSHCQGNRWRRSKRASYVSNPICKGCLSCSKDNGCSRCQQKLFFFLRREGMRQYGECLHSCPSGYYGHRAPDMNRCARCRIENCDSCFSKDFCTKCKVGFYLHRGRCFDECPDGFAPLEETMECVEGCEVGHWSEWGTCSRNNRTCGFKWGLETRTRQIVKKPVKDTILCPTIAESRRCKMTMRHCPGGKRTPKAKEKRNKKKKRKLIERAQEQHSVFLATDRANQ
[1]
  expression of ID1: decreased
[2]
  Kd: ~4.8 nM
[3]
  BMP signaling induced by constitutively active ALK3: specifically inhibited
[4]
  ALK3 binding: required the TSP1—but not the FU domains
[5]
  ZNRF3 interaction with ALK3 in the presence of the protein: interacted with ALK3
[6]; HEPG2 cells, BMP4 stimulation, treatment with RSPO protein
  BMP4 signaling: decreased BMP4 signaling
[6]; siRNA knockdown of β-catenin, LGR4/5, LRP5/6, DVL1/2/3 and ROR1/2
  inhibition of BMP signaling by RSPO2 after knockdown of WNT pathway components: remained unaffected
